# Source: the supplement of paper PMC7125110
# ± gives the standard error. This sample holds only a part of the variants without activity.
# B1: glmS ribozyme (parent)
# chain: AUAAAAGCGCCAGAACUACAGAAAUGUAGUUGACGAGGAGGAGGUUUAUCGAAUUUUCGGCGGAUGCCUCCAAA
# Assays:
# Details in all cases: with glucosamine-6-phosphate
# glucosamine-6-phosphate [1] = variants of: B1; experiment: self-cleavage kobs at 40 uM GlcN6P; higher = faster cleavage; RNA array
# Method in brief: (§1)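 Glucosamine-6-phosphate, from 40 μM to 10 mM in HEPES/KCl/Mg(OAc)2 buffer, was flowed over sequenced MiSeq chips carrying barcoded ribozyme variants transcribed in situ by E. coli RNA polymerase. A hybridised Cy3 probe tracked the variants at 37 °C as tiles were imaged over ~14 h. kobs, kcat and KM were obtained by fitting normalised per-tile medians to exponential decays and then applying weighted Michaelis–Menten fits across concentrations.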
# glucosamine-6-phosphate [2] = variants of: B1; experiment: self-cleavage kobs at 160 uM GlcN6P; higher = faster cleavage; RNA array
# Method in brief: as §1
# glucosamine-6-phosphate [3] = variants of: B1; experiment: self-cleavage kobs at 640 uM GlcN6P; higher = faster cleavage; RNA array
# Method in brief: as §1
# glucosamine-6-phosphate [4] = variants of: B1; experiment: self-cleavage kobs at 2500 uM GlcN6P; higher = faster cleavage; RNA array
# Method in brief: as §1
# glucosamine-6-phosphate [5] = variants of: B1; experiment: self-cleavage kobs at 10000 uM GlcN6P; higher = faster cleavage; RNA array
# Method in brief: as §1
Variant,self-cleavage kobs at 40 uM GlcN6P (glucosamine-6-phosphate [1]) [s⁻¹],self-cleavage kobs at 160 uM GlcN6P (glucosamine-6-phosphate [2]) [s⁻¹],self-cleavage kobs at 640 uM GlcN6P (glucosamine-6-phosphate [3]) [s⁻¹],self-cleavage kobs at 2500 uM GlcN6P (glucosamine-6-phosphate [4]) [s⁻¹],self-cleavage kobs at 10000 uM GlcN6P (glucosamine-6-phosphate [5]) [s⁻¹]
A42G C50A A64G C70G,< 1e-05,,,,
G43A U49G,< 1e-05,< 1e-05,< 1e-05,< 1e-05,
G43C G62U,< 1e-05,< 1e-05,< 1e-05,< 1e-05,< 1e-05
G43C G62C,< 1e-05,< 1e-05,< 1e-05,< 1e-05,
G41C C58G,< 1e-05,< 1e-05,< 1e-05,,< 1e-05
G41C C70G,0.0028 ± 0.00025,0.00588 ± 0.00089,0.023 ± 0.0035,0.0672 ± 0.025,
G41U G43C,< 1e-05,< 1e-05,< 1e-05,< 1e-05,
G40U C71A,0.000671 ± 6.2e-05,0.00189 ± 0.00028,0.00561 ± 0.00069,0.00906 ± 0.0019,0.0484 ± 0.0079
G40U G44A U57C C61G G66U,< 1e-05,,,< 1e-05,
G40U G41U U47G G62U G63U,< 1e-05,,,,< 1e-05
A42C U57A,< 1e-05,,< 1e-05,< 1e-05,< 1e-05
G40A A53C G62U,< 1e-05,,,,< 1e-05
A39C G44C U65C,< 1e-05,,,,
A39C A42U A48G C50A,< 1e-05,,,,
G44A A48C,< 1e-05,< 1e-05,< 1e-05,< 1e-05,
G43A A64U C67U,< 1e-05,,< 1e-05,< 1e-05,< 1e-05
A42U C58G,< 1e-05,< 1e-05,< 1e-05,< 1e-05,
A42C C71G,< 1e-05,< 1e-05,< 1e-05,< 1e-05,< 1e-05
A39U G60U,< 1e-05,< 1e-05,< 1e-05,,< 1e-05
A39U G60C,< 1e-05,< 1e-05,,< 1e-05,< 1e-05
G40C U69G,< 1e-05,,< 1e-05,,< 1e-05
G41U G51U A53G,< 1e-05,,,,< 1e-05

Variant,self-cleavage kobs at 40 uM GlcN6P (glucosamine-6-phosphate [1]) [s⁻¹],self-cleavage kobs at 160 uM GlcN6P (glucosamine-6-phosphate [2]) [s⁻¹],self-cleavage kobs at 640 uM GlcN6P (glucosamine-6-phosphate [3]) [s⁻¹],self-cleavage kobs at 2500 uM GlcN6P (glucosamine-6-phosphate [4]) [s⁻¹],self-cleavage kobs at 10000 uM GlcN6P (glucosamine-6-phosphate [5]) [s⁻¹]
G40U G43U,< 1e-05,< 1e-05,< 1e-05,,< 1e-05
G43U G60C,< 1e-05,< 1e-05,< 1e-05,,< 1e-05
G44A A48U U69G,< 1e-05,,,< 1e-05,
G40C G62U,< 1e-05,< 1e-05,< 1e-05,< 1e-05,< 1e-05
G43U U47G,< 1e-05,< 1e-05,,,
A42G G44U,< 1e-05,< 1e-05,,,3.58e-05 ± 1.2e-05
G43U A52U,< 1e-05,< 1e-05,,,
G41A C50U G59A,< 1e-05,,,,< 1e-05
A42U G44U,< 1e-05,< 1e-05,< 1e-05,< 1e-05,
A42U G44A,< 1e-05,< 1e-05,< 1e-05,< 1e-05,
A42C A48C,< 1e-05,,< 1e-05,< 1e-05,< 1e-05
G43A C61U C71A,< 1e-05,,,,
A39G G51U,< 1e-05,< 1e-05,< 1e-05,< 1e-05,< 1e-05
G40U G59C,< 1e-05,,< 1e-05,,
G40C G59U C68A C71A,< 1e-05,,,,
G40U C61A G66A C70U,< 1e-05,,,,< 1e-05
G41C U45A U57A C61G,< 1e-05,,,,< 1e-05
A42G U55A,0.00136 ± 0.00015,0.00202 ± 0.00052,0.0283 ± 0.0091,0.0289 ± 0.0077,0.0423 ± 0.013
G43A G62C,< 1e-05,,,< 1e-05,< 1e-05
G43A G62A,< 1e-05,< 1e-05,,< 1e-05,< 1e-05
G43U U54A,< 1e-05,,,,6.37e-05 ± 2e-05
G43A G51U,< 1e-05,< 1e-05,,< 1e-05,

Variant,self-cleavage kobs at 40 uM GlcN6P (glucosamine-6-phosphate [1]) [s⁻¹],self-cleavage kobs at 160 uM GlcN6P (glucosamine-6-phosphate [2]) [s⁻¹],self-cleavage kobs at 640 uM GlcN6P (glucosamine-6-phosphate [3]) [s⁻¹],self-cleavage kobs at 2500 uM GlcN6P (glucosamine-6-phosphate [4]) [s⁻¹],self-cleavage kobs at 10000 uM GlcN6P (glucosamine-6-phosphate [5]) [s⁻¹]
A42U A48C,< 1e-05,< 1e-05,< 1e-05,< 1e-05,
G43U G51A,< 1e-05,,< 1e-05,,
A42C U46G,< 1e-05,< 1e-05,,,
G43C U56C,< 1e-05,< 1e-05,< 1e-05,,< 1e-05
A39U U54A,0.000568 ± 6.6e-05,,0.00339 ± 0.00076,,
G40U G41C A48U,< 1e-05,,,,
G41C A42C,< 1e-05,< 1e-05,< 1e-05,< 1e-05,
A39G C71G,0.000215 ± 2.7e-05,0.000373 ± 6.9e-05,0.000657 ± 8.3e-05,0.00189 ± 0.00037,0.00538 ± 0.0012
A42U G62C,< 1e-05,,< 1e-05,,< 1e-05
A42C G62C,< 1e-05,< 1e-05,,,< 1e-05
G41C A42G A53C G63A,< 1e-05,,< 1e-05,< 1e-05,
A42U C50U,< 1e-05,< 1e-05,< 1e-05,< 1e-05,< 1e-05
G44A G59U C71A,< 1e-05,< 1e-05,< 1e-05,< 1e-05,< 1e-05
A39C U54C A64C,< 1e-05,,,,
G43U A48G C70G,< 1e-05,,,,< 1e-05
A39G A42C U69G C70A,< 1e-05,,,,
G43A G51C G63A C68U,< 1e-05,,,,
G40C,0.000161 ± 2.8e-06,0.000388 ± 1.8e-05,0.00123 ± 3.8e-05,0.00453 ± 0.0002,
G40U,0.000216 ± 1.5e-05,0.00045 ± 1.9e-05,0.00199 ± 0.0002,0.00539 ± 0.00024,
G41U C70G,0.00157 ± 0.00018,0.00262 ± 0.00038,0.00612 ± 0.00092,0.00944 ± 0.0019,0.0513 ± 0.014
A39G U49C A52G G63U C68G,< 1e-05,,,,
G38U U46C,< 1e-05,,,< 1e-05,

Variant,self-cleavage kobs at 40 uM GlcN6P (glucosamine-6-phosphate [1]) [s⁻¹],self-cleavage kobs at 160 uM GlcN6P (glucosamine-6-phosphate [2]) [s⁻¹],self-cleavage kobs at 640 uM GlcN6P (glucosamine-6-phosphate [3]) [s⁻¹],self-cleavage kobs at 2500 uM GlcN6P (glucosamine-6-phosphate [4]) [s⁻¹],self-cleavage kobs at 10000 uM GlcN6P (glucosamine-6-phosphate [5]) [s⁻¹]
G41C C50A G63U C67A,< 1e-05,,,,< 1e-05
G43U G62U,< 1e-05,,,< 1e-05,< 1e-05
A42G G62U C68U,< 1e-05,,,,
G44A C70U,< 1e-05,< 1e-05,,,
G44A C70G,< 1e-05,< 1e-05,< 1e-05,< 1e-05,< 1e-05
G40A U55C C61A,< 1e-05,,,,
G40U G41C A42G A52G U56G G60U,< 1e-05,,< 1e-05,< 1e-05,
G41A U45C C70U,9.09e-05 ± 2e-05,,,0.00174 ± 0.00052,0.00358 ± 0.00079
G40U U45G C67U,< 1e-05,< 1e-05,,,5.49e-05 ± 1.2e-05
G40A U54G,0.00036 ± 6.8e-05,,0.0015 ± 0.00038,0.00184 ± 0.00065,0.00643 ± 0.0015
G41U U54A,2.71e-05 ± 1.1e-05,0.000104 ± 1.6e-05,0.000174 ± 2.6e-05,0.000426 ± 7.7e-05,0.000144 ± 1.7e-05
A42G G59A,< 1e-05,,,4.78e-05 ± 2e-05,
A39U A42G U65A,4.73e-05 ± 1.7e-05,,,,0.00165 ± 0.00027
A39G U69A,8.49e-05 ± 1.6e-05,9.95e-05 ± 2.2e-05,0.000395 ± 6.6e-05,0.000452 ± 0.00012,0.000139 ± 2.2e-05
G43C C71A,< 1e-05,< 1e-05,< 1e-05,< 1e-05,
G40U U56A G62U C67G,< 1e-05,< 1e-05,< 1e-05,< 1e-05,
A39G C70U,0.00118 ± 0.00015,0.0014 ± 0.0004,0.00828 ± 0.0017,0.0127 ± 0.0053,0.022 ± 0.0045
G43C U46G U69C,< 1e-05,,,,
A42C U45A,< 1e-05,,< 1e-05,< 1e-05,
A42C G43C C50U C67U,< 1e-05,,,,
G41U G44A,< 1e-05,< 1e-05,< 1e-05,< 1e-05,< 1e-05
